pKd: −log10 of the molar value.
Assays:
HLA-C*04:01 = experiment: IEDB peptide-MHC binding, purified MHC/direct/fluorescence; filed as Kd, often an IC50 or EC50 that approximates it; ≥ and ≤ were set here for values at or beyond the usual limits of such assays
HLA-C*06:02 = experiment: as above; details: source organism: Vaccinia virus WR
HLA-C*08:02 = experiment: as above; details: source organism: Vaccinia virus WR
HLA-C*12:03 = experiment: as above; details: source organism: Vaccinia virus WR
HLA-C*15:02 = experiment: as above; details: source organism: Vaccinia virus WR
HLA-A*02:01 [1] = experiment: IEDB peptide-MHC binding, purified MHC/competitive/fluorescence; filed as Kd, often an IC50 or EC50 that approximates it; ≥ and ≤ were set here for values at or beyond the usual limits of such assays
HLA-A*24:03 = experiment: IEDB peptide-MHC binding, purified MHC/direct/fluorescence; filed as Kd, often an IC50 or EC50 that approximates it; ≥ and ≤ were set here for values at or beyond the usual limits of such assays
HLA-A*01:01 [2] = experiment: as above
HLA-A*02:01 [3] = experiment: as above
HLA-A*68:02 = experiment: as above
HLA-A*69:01 = experiment: as above
HLA-B*07:02 = experiment: as above
HLA-B*15:01 [4] = experiment: as above
HLA-B*15:17 = experiment: as above
HLA-B*18:01 [5] = experiment: as above; details: source organism: Camelpox virus M-96
HLA-B*27:05 = experiment: as above
HLA-B*39:01 = experiment: as above; details: source organism: Camelpox virus M-96
HLA-B*57:01 [6] = experiment: as above
HLA-B*58:01 = experiment: as above
HLA-B*35:01 = experiment: IEDB peptide-MHC binding, purified MHC/competitive/fluorescence; filed as Kd, often an IC50 or EC50 that approximates it; ≥ and ≤ were set here for values at or beyond the usual limits of such assays
HLA-B*40:01 [7] = experiment: as above; details: source organism: Vaccinia virus L-IPV
HLA-B*48:01 = experiment: as above; details: source organism: Vaccinia virus L-IPV
HLA-A*80:01 = experiment: IEDB peptide-MHC binding, purified MHC/direct/fluorescence; filed as Kd, often an IC50 or EC50 that approximates it; ≥ and ≤ were set here for values at or beyond the usual limits of such assays
HLA-A*03:01 = experiment: as above
HLA-A*11:01 = experiment: as above
HLA-A*24:02 = experiment: as above
HLA-A*31:01 = experiment: as above
HLA-B*08:01 = experiment: as above
HLA-B*40:01 [8] = experiment: as above
HLA-B*44:02 = experiment: as above
HLA-B*46:01 = experiment: as above; details: source organism: Influenza A virus (A/Viet Nam/HN/2004(H5N1))
HLA-A*23:01 = experiment: as above; details: source organism: Marburg virus - Musoke, Kenya, 1980
HLA-A*26:03 = experiment: as above; details: source organism: Ravn virus - Ravn, Kenya, 1987
HLA-B*08:03 = experiment: as above; details: source organism: Ravn virus - Ravn, Kenya, 1987
HLA-A*02:06 = experiment: IEDB peptide-MHC binding, purified MHC/competitive/fluorescence; filed as Kd, often an IC50 or EC50 that approximates it; ≥ and ≤ were set here for values at or beyond the usual limits of such assays; details: source organism: Orthomarburgvirus marburgense
HLA-A*26:02 = experiment: as above; details: source organism: Orthomarburgvirus marburgense
HLA-B*15:01 [9] = experiment: as above; details: source organism: Orthomarburgvirus marburgense
HLA-B*18:01 [10] = experiment: as above; details: source organism: Orthomarburgvirus marburgense
HLA-C*05:01 = experiment: IEDB peptide-MHC binding, purified MHC/direct/fluorescence; filed as Kd, often an IC50 or EC50 that approximates it; ≥ and ≤ were set here for values at or beyond the usual limits of such assays; details: source organism: Escherichia coli B171
HLA-A*30:02 = experiment: IEDB peptide-MHC binding, purified MHC/competitive/radioactivity; filed as Kd, often an IC50 or EC50 that approximates it; ≥ and ≤ were set here for values at or beyond the usual limits of such assays; details: source organism: Dengue virus 2 Jamaica/1409/1983
HLA-A*32:01 = experiment: as above; details: source organism: Dengue virus 2 Jamaica/1409/1983
HLA-B*15:01 [11] = experiment: as above; details: source organism: Dengue virus 2 Jamaica/1409/1983
HLA-B*57:01 [12] = experiment: as above; details: source organism: Dengue virus 2 Jamaica/1409/1983
HLA-A*01:01 [13] = experiment: IEDB peptide-MHC binding, purified MHC/competitive/fluorescence; filed as Kd, often an IC50 or EC50 that approximates it; ≥ and ≤ were set here for values at or beyond the usual limits of such assays; details: source organism: Homo sapiens
[14] = source organism: Vaccinia virus WR
[15] = source organism: Camelpox virus M-96
[16] = source organism: Mycobacterium tuberculosis
[17] = source organism: Influenza A virus (A/Viet Nam/HN/2004(H5N1))
[18] = source organism: Giardia lamblia ATCC 50803
[19] = source organism: Marburg virus - Musoke, Kenya, 1980

Sequence: FTSSFYNYV
- pKd (HLA-C*04:01; [14]): ≤ 4.70
- pKd (HLA-C*06:02): 7.05
- pKd (HLA-C*08:02): 6.09
- pKd (HLA-C*12:03): ≥ 9.00
- pKd (HLA-C*15:02): 7.72
- pKd (HLA-A*02:01 [1]; [14]): 8.34

Sequence: MYMALIAAF
- pKd (HLA-C*04:01; source organism: Yellow fever virus): ≤ 4.70

Sequence: LFPELDCFF
- pKd (HLA-A*24:03; source organism: Orthohantavirus dobravaense): 7.96
- pKd (HLA-C*04:01; source organism: Kurkino virus): ≤ 4.70

Sequence: SHEQGDIAL
- pKd (HLA-A*01:01 [2]; [15]): ≤ 4.70
- pKd (HLA-A*02:01 [3]; [15]): ≤ 4.70
- pKd (HLA-A*68:02; [15]): ≤ 4.70
- pKd (HLA-A*69:01; [15]): ≤ 4.70
- pKd (HLA-B*07:02; [15]): ≤ 4.70
- pKd (HLA-B*15:01 [4]; [15]): ≤ 4.70
- pKd (HLA-B*15:17; [15]): ≤ 4.70
- pKd (HLA-B*18:01 [5]): ≤ 4.70
- pKd (HLA-B*27:05; [15]): ≤ 4.70
- pKd (HLA-B*39:01): 7.03
- pKd (HLA-B*57:01 [6]; [15]): ≤ 4.70
- pKd (HLA-B*58:01; [15]): ≤ 4.70
- pKd (HLA-B*35:01; source organism: Vaccinia virus L-IPV): 5.64
- pKd (HLA-B*40:01 [7]): ≤ 4.70
- pKd (HLA-B*48:01): ≤ 4.70

Sequence: KTVCVQATK
- pKd (HLA-A*01:01 [2]; [16]): ≤ 4.70
- pKd (HLA-A*80:01; [16]): ≤ 4.70

Sequence: RNEQGQTLW
- pKd (HLA-A*01:01 [2]; [17]): ≤ 4.70
- pKd (HLA-A*02:01 [3]; [17]): ≤ 4.70
- pKd (HLA-A*03:01; [17]): ≤ 4.70
- pKd (HLA-A*11:01; [17]): ≤ 4.70
- pKd (HLA-A*24:02; [17]): ≤ 4.70
- pKd (HLA-A*31:01; [17]): ≤ 4.70
- pKd (HLA-B*07:02; [17]): ≤ 4.70
- pKd (HLA-B*08:01; [17]): ≤ 4.70
- pKd (HLA-B*15:01 [4]; [17]): ≤ 4.70
- pKd (HLA-B*27:05; [17]): ≤ 4.70
- pKd (HLA-B*40:01 [8]; [17]): ≤ 4.70
- pKd (HLA-B*44:02; [17]): ≤ 4.70
- pKd (HLA-B*46:01): ≤ 4.70
- pKd (HLA-B*58:01; [17]): 7.14

Sequence: ETKKRMDYF
- pKd (HLA-A*01:01 [2]; [18]): ≤ 4.70
- pKd (HLA-A*02:01 [3]; [18]): ≤ 4.70
- pKd (HLA-A*03:01; [18]): ≤ 4.70
- pKd (HLA-A*24:02; [18]): ≤ 4.70
- pKd (HLA-B*07:02; [18]): ≤ 4.70
- pKd (HLA-B*08:01; [18]): 5.81
- pKd (HLA-B*15:01 [4]; [18]): ≤ 4.70
- pKd (HLA-B*27:05; [18]): ≤ 4.70
- pKd (HLA-B*40:01 [8]; [18]): ≤ 4.70
- pKd (HLA-B*44:02; [18]): ≤ 4.70
- pKd (HLA-B*58:01; [18]): ≤ 4.70

Sequence: GFPSLESSF
- pKd (HLA-A*01:01 [2]; [19]): ≤ 4.70
- pKd (HLA-A*02:01 [3]; [19]): ≤ 4.70
- pKd (HLA-A*11:01; [19]): ≤ 4.70
- pKd (HLA-A*23:01): 7.26
- pKd (HLA-A*24:02; [19]): 6.59
- pKd (HLA-A*24:03; [19]): 7.40
- pKd (HLA-A*26:03): ≤ 4.70
- pKd (HLA-A*31:01; [19]): ≤ 4.70
- pKd (HLA-A*68:02; [19]): ≤ 4.70
- pKd (HLA-A*69:01; [19]): ≤ 4.70
- pKd (HLA-B*07:02; [19]): ≤ 4.70
- pKd (HLA-B*08:01; source organism: Ravn virus - Ravn, Kenya, 1987): ≤ 4.70
- pKd (HLA-B*08:03): ≤ 4.70
- pKd (HLA-B*15:17; [19]): ≤ 4.70
- pKd (HLA-B*57:01 [6]; [19]): ≤ 4.70
- pKd (HLA-B*58:01; [19]): ≤ 4.70
- pKd (HLA-A*02:06): 5.53
- pKd (HLA-A*26:02): ≤ 4.70
- pKd (HLA-B*15:01 [9]): ≤ 4.70
- pKd (HLA-B*18:01 [10]): 6.58
- pKd (HLA-B*35:01; source organism: Orthomarburgvirus marburgense): 6.06

Sequence: HADDIPVPV
- pKd (HLA-C*04:01; source organism: Escherichia coli B171): ≤ 4.70
- pKd (HLA-C*05:01): 8.40
- pKd (HLA-A*02:01 [1]; source organism: Escherichia coli): 7.19

Sequence: KTWAYHGSY
- pKd (HLA-A*80:01; source organism: dengue virus type 3): 5.52
- pKd (HLA-A*30:02): 5.39
- pKd (HLA-A*32:01): 8.30
- pKd (HLA-B*15:01 [11]): 8.54
- pKd (HLA-B*57:01 [12]): 8.34

Sequence: IFPSMYFLM
- pKd (HLA-A*24:02; source organism: Entamoeba histolytica HM-1:IMSS): 8.70

Sequence: WVDSTPPPG
- pKd (HLA-A*80:01; source organism: Homo sapiens): ≤ 4.70
- pKd (HLA-A*01:01 [13]): 4.93

Source: the Immune Epitope Database (IEDB)
